Test results from article PMC12647017, “Discovery and optimization of a synthetic small protein domain targeting antibodies” (Frontiers in Bioengineering and Biotechnology, 2025).

Assays:
[1] = Partition of expressed E6 between soluble and insoluble fraction; assay type: physicochemical; conditions: E. coli Rosetta (DE3), supplementation with L-arginine / L-glutamic acid (tests E and H), Tris-Tricine gel
Protocol: The gene corresponding to the chosen E6 sequence was cloned according to the detail information in Supplementary Material. The bacterial clones with the insert DNA were selected for protein expression in E. coli Rosetta (DE3) cells. For this purpose, the DNA was purified with NZYMiniprep kit and was used for transformation onto E. coli Rosetta competent cells following the protocol of the manufacturer. For the protein expression, a pre-inoculum was prepared adding 5 µL of the transformed colonies glycerol stock in 5 mL LB medium containing ampicillin (vector resistance) and […] (strain resistance). After 6 h of incubation, 1 mL of the culture was added to 100 mL of LB medium and was incubated overnight at 37 °C at 225 rpm. On the following day, 10 mL of the culture was inoculated onto 1 L of LB medium and was incubated at 37 °C at 225 rpm. […]
The WWp5_4 scaffold is composed by 42 amino acid residues with a molecular weight of approximately 5 kDa. […] The protein expression profile was evaluated under normal expression conditions (without supplementation of amino acids, test A) and a strong band at ∼ 5 kDa is visible (Supplementary Figure S3A). […] To assess whether test E or test H has higher content of soluble E6, bacterial cells were lysed and the soluble supernatant analysed. […]

[2] = Solubility / precipitation observed during production, dialysis and purification; assay type: physicochemical; conditions: lead ligand sequences from WWp5_4 naïve library
Protocol: Therefore, after expression the soluble fractions were further centrifuged at 42,000 g for 20 min at 4 °C. As the samples were diluted (∼5 mg/mL in 25 mL lysis buffer), the soluble fractions were lyophilized and resuspended in 4 mL of water. The samples were dialyzed (Membranes Spectra Pre-Treated 1 kDa, Carl Roth) to Binding buffer without imidazole (20 mM Sodium Phosphate, 500 mM Sodium Chloride pH 7.4) for 24 h at 16 °C. The samples were quantified by […] (typically ∼6 mg/mL), this solution was diluted 1:2 in Binding buffer (20 mM Sodium Phosphate, 500 mM Sodium Chloride, 20 mM imidazole pH 7.4) and purified in a gravitational flow with 6 mL of resin (IMAC Sepharose 6 Fast Flow (Ni^2+), Cytiva) packed in a PD-10 column. The column was prepared using the indications of the manufacturer. The binding of the protein to the column was maximized by an incubation for 1 h at room temperature in agitation at 40rpm. The resin was washed 4 x column volumes (CV) with binding buffer. The elution as achieved by incubation for 15min with elution buffers. We used a gradient with 3 x CV elution buffer 1 (binding buffer with 100 mM imidazole) and 3 x CV elution buffer 2 (binding buffer with 200 mM imidazole).
The most enriched elutions in WW domains (60%–70% purity) were combined and dialysed against PBS1x (10 mM Na2HPO4, 1.8 mM KH2PO4, 2.7 mM KCl, 137 mM NaCl pH 7.4) with routine changes of buffer up to 48 h at 16 °C. Following the samples were concentrated with a Amicon-Ultra15 3 kDa MWCO (Millipore) with centrifugation conditions 4,900 g, 30 min, 4 °C. The final samples were quantified by BCA assay.
Size Exclusion Chromatography (SEC). The samples were further purified by SEC to achieve 90% purity in a AKTA system (Cytiva). The column Superdex 75 Increase 10/300 GL (29148721, Cytiva) was washed with water and equilibrated 2CV in PBS1x, as described by the manufacturer. As calibrants we prepare a mixture: 2 mg/mL of Bovine Serum Albumin (66 kDa, BP9702-100, FisherScientific), Ovalbumin (42 kDa, A5503-1G, Sigma), Chicken Lysozyme ([…], 62,971–10G-F, Fluka) and hPin1_WW chemically synthesized (5 kDa, produced in ([Dias et al., 2015])) in PBS 1x, this sample was filtered with 0.2 µm PES (514–0073, VWR) and analysed. The operation conditions: flow 0.5 mL/min, 0.05 CV in PBS1x and injection of 250 µL and run for 2 CV with PBS 1x at 16 °C. The same method was used for the WW domain samples. After purifications samples were quantified for total protein by BCA assay, as described previously and used for characterization.

Sequence: SMGLPPGWDEYKT RRFKL GKTYYYNH HILS KTSTWTDPRMSS [Clone E6]
- soluble fraction of expressed protein [1]: 16%
- solubility observed in production and purification [2]: limited solubility
